According to publication PMC4084830 (Nature structural & molecular biology, 2013):

Columns and labels:
[1] = molecular target: recombinant mouse glucokinase (GK) isoform 1 (mouse) (UniProt P52792)
glucokinase (GK) = molecular target: T1, glucokinase (GK) (Mus musculus, UniProt P52792); assay: Steady-state kinetics of recombinant wild-type mouse glucokinase; assay type: biochemical; conditions: vs vehicle
T1 sequence (P52792 1-465): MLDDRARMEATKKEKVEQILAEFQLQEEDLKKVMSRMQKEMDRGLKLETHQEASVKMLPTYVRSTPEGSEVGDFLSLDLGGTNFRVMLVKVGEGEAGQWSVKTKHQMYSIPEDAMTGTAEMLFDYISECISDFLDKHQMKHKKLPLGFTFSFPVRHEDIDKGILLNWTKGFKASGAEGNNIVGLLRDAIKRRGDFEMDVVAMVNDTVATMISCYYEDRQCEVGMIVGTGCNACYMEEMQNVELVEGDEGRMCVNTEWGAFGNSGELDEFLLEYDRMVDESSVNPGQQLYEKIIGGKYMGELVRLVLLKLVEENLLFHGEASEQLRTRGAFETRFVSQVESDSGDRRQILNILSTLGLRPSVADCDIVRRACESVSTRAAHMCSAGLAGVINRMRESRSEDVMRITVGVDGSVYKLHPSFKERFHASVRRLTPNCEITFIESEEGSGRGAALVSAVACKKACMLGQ

Row | GK Vmax (% of vehicle), G6PDH-coupled assay with 5 μM SAHB and 7.5 nM GK, 37 °C [1] | increase in Vmax (glucokinase (GK); 5 μM BAD SAHB or 3 μM RO0281675) | Compound | effect on GK kinetic profile (in words) (glucokinase (GK); 5 μM BAD SAHBs and/or 3 μM RO0281675)
1 | 89.6 % veh. | – | BAD SAHBA (S118L) (peptide) | –
2 | 144 % veh. | – | BAD SAHBA (S118D) (peptide) | –
3 | 129 % veh. | – | BAD SAHBA (S118pS) (peptide) | –
4 | – | approximately 40% | CS(=O)(=O)c1ccc([C@@H](CC2CCCC2)C(=O)Nc2nccs2)cc1 [RO0281675] | no significant effect on the Hill coefficient
